# Reference: US20150344570A1 (published 2015)
# T1: FcγRIIb extracellular domain with C-terminal His tag (human, UniProt P31994 43-217)
# T1 construct: extracellular domain; also called 2b; FcgRIIb
# T1 sequence (looked up): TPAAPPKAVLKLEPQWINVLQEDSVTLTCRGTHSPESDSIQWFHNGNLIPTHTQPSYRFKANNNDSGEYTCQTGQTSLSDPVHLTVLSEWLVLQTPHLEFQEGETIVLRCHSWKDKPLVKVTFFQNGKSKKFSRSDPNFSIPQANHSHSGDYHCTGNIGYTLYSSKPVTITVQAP
# T2: FcγRIIb extracellular domain with C-terminal His tag (human, UniProt P31994 43-217)
# T2 construct: extracellular domain; Soluble receptor used as analyte in Biacore; also called FcgRIIb
# T2 sequence (looked up): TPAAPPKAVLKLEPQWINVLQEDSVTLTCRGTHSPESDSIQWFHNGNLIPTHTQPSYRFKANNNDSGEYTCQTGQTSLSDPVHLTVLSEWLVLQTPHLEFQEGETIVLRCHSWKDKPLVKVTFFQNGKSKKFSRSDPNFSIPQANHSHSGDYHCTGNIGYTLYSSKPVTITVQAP
# Key:
# [1] = target: T3, FcγRIIIa extracellular domain with C-terminal His tag (human, UniProt P08637 17-208); assay: SPR; ratio of He/Con_3a (FcγRIIIa) to He/Con_2b (FcγRIIb)
# T3 construct: extracellular domain; also called 3a; FcgRIIIa
# T3 sequence (P08637 17-208): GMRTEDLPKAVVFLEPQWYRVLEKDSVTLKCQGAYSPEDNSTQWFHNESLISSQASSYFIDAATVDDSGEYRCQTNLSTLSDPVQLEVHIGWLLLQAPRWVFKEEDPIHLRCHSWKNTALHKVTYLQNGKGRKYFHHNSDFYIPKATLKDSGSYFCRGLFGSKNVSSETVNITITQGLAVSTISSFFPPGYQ
# Method: The heterodimerized antibodies He Abs in which one of the H chains was introduced with an alteration were assayed for their binding activities to each activating FcγR and inhibitory FcγR according to the method described in Example 4. […] The activating FcγRs in FIGS. 26, 27, 28, and 29 are FcγRIa, FcγRIIa (R), FcγRIIa (H), and FcγRIIIa, respectively.
# Analysis of interaction between objective antibody and the FcγR was carried out using Biacore T100 (GE Healthcare). HBS-EP+ (GE Healthcare) was used as the running buffer, and the measurement temperature was set to 25° C. Chips produced by immobilizing the antigen peptide by the amine coupling method to a Series S Sencor Chip CM5 (GE Healthcare), or alternatively, chips produced by allowing preliminarily biotinylated antigen peptides to interact with and immobilize onto a Series S Sensor Chip SA (certified) (GE Healthcare) were used. Antibodies of interest were captured onto an antigen peptide-immobilized chip, and allowed to interact to each FcγR diluted with running buffer. To regenerate and repeatedly use the chip, the antibodies captured on the chip were washed off by reacting 10 mM glycine-HCl, pH 1.5.
# [2] = target: T3, FcγRIIIa extracellular domain with …; assay: SPR, binding relative to GpH7-A5/GpH7-B3/GpL16-k0 = 100
# [3] = target: T1, FcγRIIb extracellular domain with …; assay: as above
# [4] = target: T2, FcγRIIb extracellular domain with …; assay: SPR (Biacore), antibody captured, FcγR as analyte; binding relative to GpH7-A5/GpH7-B3/GpL16-k0 = 100
# [5] = target: T4, FcγRIa extracellular domain with C-terminal His tag (human, UniProt P12314 16-292); assay: as above
# T4 construct: extracellular domain; Soluble receptor used as analyte in Biacore; also called FcgRI
# T4 sequence (P12314 16-292): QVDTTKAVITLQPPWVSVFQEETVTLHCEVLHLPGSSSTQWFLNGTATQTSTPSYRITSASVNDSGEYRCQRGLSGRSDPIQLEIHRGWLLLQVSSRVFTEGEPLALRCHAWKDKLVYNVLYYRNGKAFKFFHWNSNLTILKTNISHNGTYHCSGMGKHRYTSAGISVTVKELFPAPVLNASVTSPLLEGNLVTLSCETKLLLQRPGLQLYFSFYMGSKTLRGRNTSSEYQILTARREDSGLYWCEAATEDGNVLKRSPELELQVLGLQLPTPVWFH
# [6] = target: T4, FcγRIa extracellular domain with …; assay: ratio He/Con_1a : He/Con_2b (FcγRIa over FcγRIIb), SPR (Biacore)
Binder,He_3a/2b (IIIa/IIb) [1],He/Con_3a [2],He/Con_2b [3],He/Con_2b [4] [control = 100],He/Con_1a [5] [control = 100],He_1a/2b (Ia/IIb) [6]
"GpH7-A5/GpH7-B3 variant L235_11K/GpL16-k0 (antibody, human IgG1, kappa, also called He Ab) heavy 1: not shown heavy 2: not shown light: DIVMTQSPLSLPVTPGEPASISCQASESLVHSNRNTYLHWYLQKPGQSPQLLIYKVSNRFSGVPDRFSGSGSGTDFTLKISRVEAEDVGVYYCSQNTHVPPTFGQGTKVEIERTVAAPSVFIFPPSDEQLKSGTASVVCLLNNFYPREAKVQWKVDNALQSGNSQESVTEQDSKDSTYSLSSTLTLSKADYEKHKVYACEVTHQGLSSPVTKSFNRGEC",6.06,38.1 % of control,6.3 % of control,,,
"GpH7-A5/GpH7-B3 variant K326_02A/GpL16-k0 (antibody, human IgG1, kappa, Heterodimerized IgG1, mutation in the GpH7-B3 chain only; also called He Ab) heavy 1: not shown heavy 2: not shown light: DIVMTQSPLSLPVTPGEPASISCQASESLVHSNRNTYLHWYLQKPGQSPQLLIYKVSNRFSGVPDRFSGSGSGTDFTLKISRVEAEDVGVYYCSQNTHVPPTFGQGTKVEIERTVAAPSVFIFPPSDEQLKSGTASVVCLLNNFYPREAKVQWKVDNALQSGNSQESVTEQDSKDSTYSLSSTLTLSKADYEKHKVYACEVTHQGLSSPVTKSFNRGEC",,,,139,102,0.73
"GpH7-A5/GpH7-B3 variant H268_13S/GpL16-k0 (antibody, human IgG1, kappa, Heterodimerized IgG1, mutation in the GpH7-B3 chain only; also called He Ab) heavy 1: not shown heavy 2: not shown light: DIVMTQSPLSLPVTPGEPASISCQASESLVHSNRNTYLHWYLQKPGQSPQLLIYKVSNRFSGVPDRFSGSGSGTDFTLKISRVEAEDVGVYYCSQNTHVPPTFGQGTKVEIERTVAAPSVFIFPPSDEQLKSGTASVVCLLNNFYPREAKVQWKVDNALQSGNSQESVTEQDSKDSTYSLSSTLTLSKADYEKHKVYACEVTHQGLSSPVTKSFNRGEC",,,,160,109,0.68
"GpH7-A5/GpH7-B3 variant H268_09D/GpL16-k0 (antibody, human IgG1, kappa, Heterodimerized IgG1, mutation in the GpH7-B3 chain only; also called He Ab) heavy 1: not shown heavy 2: not shown light: DIVMTQSPLSLPVTPGEPASISCQASESLVHSNRNTYLHWYLQKPGQSPQLLIYKVSNRFSGVPDRFSGSGSGTDFTLKISRVEAEDVGVYYCSQNTHVPPTFGQGTKVEIERTVAAPSVFIFPPSDEQLKSGTASVVCLLNNFYPREAKVQWKVDNALQSGNSQESVTEQDSKDSTYSLSSTLTLSKADYEKHKVYACEVTHQGLSSPVTKSFNRGEC",,,,239,110,0.46
"GpH7-A5/GpH7-B3 variant L235_13S/GpL16-k0 (antibody, human IgG1, kappa, also called He Ab) heavy 1: not shown heavy 2: not shown light: DIVMTQSPLSLPVTPGEPASISCQASESLVHSNRNTYLHWYLQKPGQSPQLLIYKVSNRFSGVPDRFSGSGSGTDFTLKISRVEAEDVGVYYCSQNTHVPPTFGQGTKVEIERTVAAPSVFIFPPSDEQLKSGTASVVCLLNNFYPREAKVQWKVDNALQSGNSQESVTEQDSKDSTYSLSSTLTLSKADYEKHKVYACEVTHQGLSSPVTKSFNRGEC",1.44,69.6 % of control,48.2 % of control,,,
"GpH7-A5/GpH7-B3 variant L235_14T/GpL16-k0 (antibody, human IgG1, kappa, also called He Ab) heavy 1: not shown heavy 2: not shown light: DIVMTQSPLSLPVTPGEPASISCQASESLVHSNRNTYLHWYLQKPGQSPQLLIYKVSNRFSGVPDRFSGSGSGTDFTLKISRVEAEDVGVYYCSQNTHVPPTFGQGTKVEIERTVAAPSVFIFPPSDEQLKSGTASVVCLLNNFYPREAKVQWKVDNALQSGNSQESVTEQDSKDSTYSLSSTLTLSKADYEKHKVYACEVTHQGLSSPVTKSFNRGEC",1.62,75.8 % of control,46.8 % of control,,,
"GpH7-A5/GpH7-B3 variant H268_10E/GpL16-k0 (antibody, human IgG1, kappa, Heterodimerized IgG1, mutation in the GpH7-B3 chain only; also called He Ab) heavy 1: not shown heavy 2: not shown light: DIVMTQSPLSLPVTPGEPASISCQASESLVHSNRNTYLHWYLQKPGQSPQLLIYKVSNRFSGVPDRFSGSGSGTDFTLKISRVEAEDVGVYYCSQNTHVPPTFGQGTKVEIERTVAAPSVFIFPPSDEQLKSGTASVVCLLNNFYPREAKVQWKVDNALQSGNSQESVTEQDSKDSTYSLSSTLTLSKADYEKHKVYACEVTHQGLSSPVTKSFNRGEC",,,,230,111,0.48
"GpH7-A5/GpH7-B3 variant K326_04F/GpL16-k0 (antibody, human IgG1, kappa, Heterodimerized IgG1, mutation in the GpH7-B3 chain only; also called He Ab) heavy 1: not shown heavy 2: not shown light: DIVMTQSPLSLPVTPGEPASISCQASESLVHSNRNTYLHWYLQKPGQSPQLLIYKVSNRFSGVPDRFSGSGSGTDFTLKISRVEAEDVGVYYCSQNTHVPPTFGQGTKVEIERTVAAPSVFIFPPSDEQLKSGTASVVCLLNNFYPREAKVQWKVDNALQSGNSQESVTEQDSKDSTYSLSSTLTLSKADYEKHKVYACEVTHQGLSSPVTKSFNRGEC",,,,155,102,0.66
"GpH7-A5/GpH7-B3 variant L235_18N/GpL16-k0 (antibody, human IgG1, kappa, also called He Ab) heavy 1: not shown heavy 2: not shown light: DIVMTQSPLSLPVTPGEPASISCQASESLVHSNRNTYLHWYLQKPGQSPQLLIYKVSNRFSGVPDRFSGSGSGTDFTLKISRVEAEDVGVYYCSQNTHVPPTFGQGTKVEIERTVAAPSVFIFPPSDEQLKSGTASVVCLLNNFYPREAKVQWKVDNALQSGNSQESVTEQDSKDSTYSLSSTLTLSKADYEKHKVYACEVTHQGLSSPVTKSFNRGEC",1.23,67.3 % of control,54.9 % of control,,,
"GpH7-A5/GpH7-B3 variant K326_03V/GpL16-k0 (antibody, human IgG1, kappa, Heterodimerized IgG1, mutation in the GpH7-B3 chain only; also called He Ab) heavy 1: not shown heavy 2: not shown light: DIVMTQSPLSLPVTPGEPASISCQASESLVHSNRNTYLHWYLQKPGQSPQLLIYKVSNRFSGVPDRFSGSGSGTDFTLKISRVEAEDVGVYYCSQNTHVPPTFGQGTKVEIERTVAAPSVFIFPPSDEQLKSGTASVVCLLNNFYPREAKVQWKVDNALQSGNSQESVTEQDSKDSTYSLSSTLTLSKADYEKHKVYACEVTHQGLSSPVTKSFNRGEC",,,,175,102,0.58
"GpH7-A5/GpH7-B3 variant H268_18N/GpL16-k0 (antibody, human IgG1, kappa, Heterodimerized IgG1, mutation in the GpH7-B3 chain only; also called He Ab) heavy 1: not shown heavy 2: not shown light: DIVMTQSPLSLPVTPGEPASISCQASESLVHSNRNTYLHWYLQKPGQSPQLLIYKVSNRFSGVPDRFSGSGSGTDFTLKISRVEAEDVGVYYCSQNTHVPPTFGQGTKVEIERTVAAPSVFIFPPSDEQLKSGTASVVCLLNNFYPREAKVQWKVDNALQSGNSQESVTEQDSKDSTYSLSSTLTLSKADYEKHKVYACEVTHQGLSSPVTKSFNRGEC",,,,156,108,0.69
"GpH7-A5/GpH7-B3 variant L235_19Q/GpL16-k0 (antibody, human IgG1, kappa, also called He Ab) heavy 1: not shown heavy 2: not shown light: DIVMTQSPLSLPVTPGEPASISCQASESLVHSNRNTYLHWYLQKPGQSPQLLIYKVSNRFSGVPDRFSGSGSGTDFTLKISRVEAEDVGVYYCSQNTHVPPTFGQGTKVEIERTVAAPSVFIFPPSDEQLKSGTASVVCLLNNFYPREAKVQWKVDNALQSGNSQESVTEQDSKDSTYSLSSTLTLSKADYEKHKVYACEVTHQGLSSPVTKSFNRGEC",1.65,70.5 % of control,42.6 % of control,,,
"GpH7-A5/GpH7-B3 variant H268_02A/GpL16-k0 (antibody, human IgG1, kappa, Heterodimerized IgG1, mutation in the GpH7-B3 chain only; also called He Ab) heavy 1: not shown heavy 2: not shown light: DIVMTQSPLSLPVTPGEPASISCQASESLVHSNRNTYLHWYLQKPGQSPQLLIYKVSNRFSGVPDRFSGSGSGTDFTLKISRVEAEDVGVYYCSQNTHVPPTFGQGTKVEIERTVAAPSVFIFPPSDEQLKSGTASVVCLLNNFYPREAKVQWKVDNALQSGNSQESVTEQDSKDSTYSLSSTLTLSKADYEKHKVYACEVTHQGLSSPVTKSFNRGEC",,,,167,109,0.65
"GpH7-A5/GpH7-B3 variant H268_01G/GpL16-k0 (antibody, human IgG1, kappa, Heterodimerized IgG1, mutation in the GpH7-B3 chain only; also called He Ab) heavy 1: not shown heavy 2: not shown light: DIVMTQSPLSLPVTPGEPASISCQASESLVHSNRNTYLHWYLQKPGQSPQLLIYKVSNRFSGVPDRFSGSGSGTDFTLKISRVEAEDVGVYYCSQNTHVPPTFGQGTKVEIERTVAAPSVFIFPPSDEQLKSGTASVVCLLNNFYPREAKVQWKVDNALQSGNSQESVTEQDSKDSTYSLSSTLTLSKADYEKHKVYACEVTHQGLSSPVTKSFNRGEC",,,,144,107,0.75
